From IntAct's records for PubMed 23681068

B1: RNA-binding protein FUS (Homo sapiens), P35637 (parent)
chain: MASNDYTQQATQSYGAYPTQPGQGYSQQSSQPYGQQSYSGYSQSTDTSGYGQSSYSSYGQSQNTGYGTQSTPQGYGSTGGYGSSQSSQSSYGQQSSYPGYGQQPAPSSTSGSYGSSSQSSSYGQPQSGSYSQQPSYGGQQQSYGQQQSYNPPQGYGQQNQYNSSSGGGGGGGGGGNYGQDQSSMSSGGGSGGGYGNQDQSGGGGSGGYGQQDRGGRGRGGSGGGGGGGGGGYNRSSGGYEPRGRGGGRGGRGGMGGSDRGGFNKFGGPRDQGSRHDSEQDNSDNNTIFVQGLGENVTIESVADYFKQIGIIKTNKKTGQPMINLYTDRETGKLKGEATVSFDDPPSAKAAIDWFDGKEFSGNPIKVSFATRRADFNRGGGNGRGGRGRGGPMGRGGYGGGGSGGGGRGGFPSGGGGGGGQQRAGDWKCPNPTCENMNFSWRNECNQCKAPKPDGPGGGPGGSHMGGNYGDDRRGGRGGYDRGGYRGRGGDRGGFRGGRGGGDRGGFGPGKMDSRGEHRQDRRERPY

Variants of: B1
Conditions: with smn_mouse Smn1, P97801
Sequence of smn_mouse Smn1, P97801 (P97801 whole entry): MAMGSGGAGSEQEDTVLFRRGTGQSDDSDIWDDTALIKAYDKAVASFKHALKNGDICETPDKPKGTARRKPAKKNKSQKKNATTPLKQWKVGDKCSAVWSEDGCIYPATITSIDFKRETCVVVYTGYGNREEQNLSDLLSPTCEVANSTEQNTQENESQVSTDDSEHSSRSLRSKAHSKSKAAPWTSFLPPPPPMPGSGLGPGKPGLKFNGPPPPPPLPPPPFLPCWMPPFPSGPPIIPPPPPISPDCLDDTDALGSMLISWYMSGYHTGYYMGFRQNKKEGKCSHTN

Row | Variant | effect of a mutation on the interaction
1 | MASNDYTQQATQSYGAYPTQPGQGYSQQSSQPYGQQSYSGYSQSTDTSGYGQSSYSSYGQSQNTGYGTQSTPQGYGSTGGYGSSQSSQSSYGQQSSYPGYGQQPAPSSTSGSYGSSSQSSSYGQPQSGSYSQQPSYGGQQQSYGQQQSYNPPQGYGQQNQYNSSSGGGGGGGGGGNYGQDQSSMSSGGGSGGGYGNQDQSGGGGSGGYGQQDRGGRGRGGSGGGGGGGGGGYNRSSGGYEPRGRGGGRGGRGGMGGSDRGGFNKFGGPRDQGSRHDSEQDNSDNNTIFVQGLGENVTIESVADYFKQIGIIKTNKKTGQPMINLYTDRETGKLKGEATVSFDDPPSAKAAIDWFDGKEFSGNPIKVSFATRRADFNRGGGNGRGGRGRGGPMGRGGYGGGGSGGGGRGGFPSGGGGGGGQQRAGDWKCPNPTCENMNFSWRNECNQCKAPKPDGPGGGPGGSHMGGNYGDDRRGGRGGYDRGGYRGRGGDRGGFRGGRGGGDRGGFGPGKMDSRGEHRQDRRERLY [P525L] | increasing interaction strength
2 | MASNDYTQQATQSYGAYPTQPGQGYSQQSSQPYGQQSYSGYSQSTDTSGYGQSSYSSYGQSQNTGYGTQSTPQGYGSTGGYGSSQSSQSSYGQQSSYPGYGQQPAPSSTSGSYGSSSQSSSYGQPQSGSYSQQPSYGGQQQSYGQQQSYNPPQGYGQQNQYNSSSGGGGGGGGGGNYGQDQSSMSSGGGSGGGYGNQDQSGGGGSGGYGQQDRGGRGRGGSGGGGGGGGGGYNRSSGGYEPRGRGGGRGGRGGMGGSDRGGFNKFGGPRDQGSRHDSEQDNSDNNTIFVQGLGENVTIESVADYFKQIGIIKTNKKTGQPMINLYTDRETGKLKGEATVSFDDPPSAKAAIDWFDGKEFSGNPIKVSFATRRADFNRGGGNGRGGRGRGGPMGRGGYGGGGSGGGGRGGFPSGGGGGGGQQRAGDWKCPNPTCENMNFSWRNECNQCKAPKPDGPGGGPGGSHMGGNYGDDRRGGRGGYDRGGYRGRGGDRGGFRGGRGGGDRGGFGPGKMDSRGEHRQDHRERPY [R521H] | increasing interaction strength
3 | MASNDYTQQATQSYGAYPTQPGQGYSQQSSQPYGQQSYSGYSQSTDTSGYGQSSYSSYGQSQNTGYGTQSTPQGYGSTGGYGSSQSSQSSYGQQSSYPGYGQQPAPSSTSGSYGSSSQSSSYGQPQSGSYSQQPSYGGQQQSYGQQQSYNPPQGYGQQNQYNSSSGGGGGGGGGGNYGQDQSSMSSGGGSGGGYGNQDQSGGGGSGGYGQQDRGGRGRGGSGGGGGGGGGGYNRSSGGYEPRGRGGGRGGRGGMGGSDRGGFNKFGGPRDQGSRHDSEQDNSDNNTIFVQGLGENVTIESVADYFKQIGIIKTNKKTGQPMINLYTDRETGKLKGEATVSFDDPPSAKAAIDWFDGKEFSGNPIKVSFATRRADFNRGGGNGRGGRGRGGPMGRGGYGGGGSGGGGRGGFPSGGGGGGGQQRAGDWKCPNPTCENMNFSWRNECNQCKAPKPDGPGGGPGGSHMGGNYGDDRRGGRGGYDRGGYRGRGGDRGGFRGGRGGGDRGGFGPGKMDSRGEHRQDCRERPY [R521C] | increasing interaction strength

Variants of: B1
Conditions: with smn_mouse Smn1, P97801
Remark: another data set of the same source

Row | Variant | effect of a mutation on the interaction
4 | MASNDYTQQATQSYGAYPTQPGQGYSQQSSQPYGQQSYSGYSQSTDTSGYGQSSYSSYGQSQNTGYGTQSTPQGYGSTGGYGSSQSSQSSYGQQSSYPGYGQQPAPSSTSGSYGSSSQSSSYGQPQSGSYSQQPSYGGQQQSYGQQQSYNPPQGYGQQNQYNSSSGGGGGGGGGGNYGQDQSSMSSGGGSGGGYGNQDQSGGGGSGGYGQQDRGGRGRGGSGGGGGGGGGGYNRSSGGYEPRGRGGGRGGRGGMGGSDRGGFNKFGGPRDQGSRHDSEQDNSDNNTIFVQGLGENVTIESVADYFKQIGIIKTNKKTGQPMINLYTDRETGKLKGEATVSFDDPPSAKAAIDWFDGKEFSGNPIKVSFATRRADFNRGGGNGRGGRGRGGPMGRGGYGGGGSGGGGRGGFPSGGGGGGGQQRAGDWKCPNPTCENMNFSWRNECNQCKAPKPDGPGGGPGGSHMGGNYGDDRRGGRGGYDRGGYRGRGGDRGGFRGGRGGGDRGGFGPGKMDSRGEHRQDCRERPY [R521C] | with no effect
